Results reported in publication PMC11238991.

What was measured:
[1] = target: cleaved-αA (human αA-crystallin made as his-SUMO fusion, tag removed by ulp-1) (human) (UniProt P02489); experiment: SEC; analytical; 2.0 mg/mL of each variant on Superose 6 Increase in 20 mM Tris-HCl pH 7.8, 150 mM NaCl, 0.25 mL/min; molar mass from protein standards, number of subunits predicted from it; three experiments
[2] = target: recombinant human αA-crystallin (αA) (human) (UniProt P02489); experiment: as above

Sequence of cleaved-αA (human αA-crystallin made as his-SUMO fusion, tag removed by ulp-1) (P02489 whole entry, the tested form may be a part): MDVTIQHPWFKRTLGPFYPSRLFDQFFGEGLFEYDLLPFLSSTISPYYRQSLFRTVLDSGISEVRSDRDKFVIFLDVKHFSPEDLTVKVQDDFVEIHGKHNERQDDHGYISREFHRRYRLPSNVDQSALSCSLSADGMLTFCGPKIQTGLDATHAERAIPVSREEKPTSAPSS
Sequence of recombinant human αA-crystallin (αA) (P02489 whole entry): as the sequence (P02489 whole entry, the tested form may be a part) above

| Substance | stoichiometry N [1] [subunits] | stoichiometry N [2] [subunits] |
| --- | --- | --- |
| cleaved-αA (human αA-crystallin made as his-SUMO fusion, tag removed by ulp-1) (from UniProt P02489 1-173) (natural protein) | 13 to 22 | – |
| recombinant human αA-crystallin (αA) (from UniProt P02489 1-173) (natural protein) | – | 27 to 32 |
